Experimental data published in US20150147384A1, “Sustained Delivery of Molecules Using Peptide Surfactants and Uses Thereof” (Massachusetts Institute of Technology, priority 2012, published 2015).
“And” between values parts separate entries of the source, which are not always exact repeats. Equal entries are not always repeated. “Also recorded” adds a separate entry of the source. No end group written: not given here.

Key:
[1] = Release of carboxyfluorescein (CF) through peptide vesicles; type: physicochemical; conditions: for CF retention / release (in words): PBS pH 7.4
Description: To determine whether the peptide vesicles can be used for drug delivery we measured the release kinetics of the hydrophilic fluorescent probe 5,6-carboxyfluorescein (CF) through the peptide bilayer assemblies. The peptide powder was added into the CF solution in PBS and the suspension was probe-sonicated for 10 min followed by equilibration for 1 hour. Encapsulated CF is strongly quenched and therefore, only the released CF contributes to the fluorescence intensity signal. Released CF was removed by centrifugation at 11,000 rpm for 25 min using Microcon YM-10 membrane tubes (10 kDa cut-off). Then the vesicles were re-suspended in PBS and incubated for 1 hour at 20° C. The newly released CF during incubation was collected by centrifugation through the Microcon membrane and the fluorescence intensity was measured. This process was repeated every 1 hour and a graph was created to show the release kinetics of CF as a function of time.

[2] = Particle size determination by DLS; type: physicochemical; conditions: PBS pH 7.4, 25° C.
Description: Prior to measuring particle sizes by DLS, the peptide vesicle formulations in PBS were filtered through 0.4 um filter to remove vesicle aggregates. Normalized intensity-time correlation functions g^(2) (q,t)=I(q,t)I(q,0))/I(q,01))^2 were measured over a broad time scale (from 10^−7 s to 10^4 s) using a full multiple tau digital correlator (ALV-5000FAST) with 280 channels spaced quasi-logarithmically. The scattering wavevector q=4πn sin(θ/2)/λo depends on the scattering angle θ (herein we used 0=90°), the laser wavelength λo, and the refractive index of the medium n, We used the 671 nm line from a diode pumped solid state laser which operated at a power of less than 5 mW. The scattered light was collected by a single-mode optical fiber (coherence factor ˜0.95), transferred to an avalanche photo-detector and then to the digital correlator for analysis. Accumulation times were of the order of few seconds due to the strong scattered intensity from the dispersions. To check the reproducibility of the results, several time correlation functions were recorded for each peptide vesicle system dilute suspensions the normalized electric-field time auto-correlation function g^(1)=(E(q,t)E*(q,0))/(E(q,0))^2 is related to the experimentally recorded intensity autocorrelation function g^(2) (q,t)^2 through the Siegert relation g^(2) (q, t)=B[1+f*|g(1)(q,t)|^2 where B describes the long delay time behavior of g^(2) (q, t) and f* represents an instrumental factor obtained experimentally from measurements of a dilute polystyrene/toluene solution. In our case, the optical fiber collection results in f*˜0.95. The electric-field time correlation function g^(1)(t) (for simplicity we drop the q-dependence) was analyzed as a weighted sum of independent exponential contributions, i.e., g^(1)∫L(τ)exp(−t/τ)dτ=∫L(ln τ)exp(−t/τ)d in τ. The distribution of relaxation times L(lnr)=τL(τ) was obtained by inverse Laplace transformation of g<′>(q,t) using the CONTIN algorithm.
The apparent hydrodynamic radii of the suspended particles were determined using the Stokes-Einstein relation Rh=kBT/6πηD, where kB is the Boltzmann constant, η is the viscosity of the solvent, and D the diffusion coefficient of the particle. The latter is determined by D=1/t q^2. where τ is the relaxation time of g(^1) (q,t).

Caco-2 cell monolayers = assay: FITC-dextran 4.4 kDa permeability through Caco-2 monolayer; conditions: for Papp of FITC-dextran 4.4 kDa: apical to basolateral; for Enhancement ratio (FITC-dextran): R=Papp(peptide)/Papp(control); for enhancement of FITC-dextran transport compared with the control: 1.0 mgmt peptide
Description: Caco-2 cells were seeded at a density of 2×10^5 cells/cm^2 on 24-well 6.5 mm Transwell polyester membrane inserts (0.4 um pore size, Corning Costar, Cambridge, Mass.). The medium was changed every 2-3 days in both sides of the Transwell membrane. After 20 days the growth medium was replaced with 10 mM HBSS/HEPES buffer pH 7.4 and studies of the cell-monolayer integrity and permeability were performed.
For the permeability assay, we added in the apical side of the Transwell 1 mg/mL FITC-dextran MW 4.4 kDa (Sigma) in 10 mM HBSS/HEPES buffer pH 7.4 with and without 0.2 or 1.0 mg/mL of self-assembling peptides. At each time point, samples were withdrawn from the basorateral side and the amount of FITC-dextran was measured using a fluorescence 96-well plate reader. The excitation and emission wavelengths were 490 nm and 530 nm, respectively. Results were expressed as cumulative transepithelial transport of FITC-dextran as a function of time. All measurements were done in triplicates and expressed as mean±S.D. The apparent permeability coefficient was calculated according to Papp=(dQ/dt)/(dt)/(ACo) in cm/s, where dQ, is the cumulative amount of FITC-dextran in the basolateral side at time t, (dQ/dt) in pmol/s is the permeability rate, Co is the initial concentration of FITC-dextran in the apical side and A is the area of the monolayer. The enhancement ratio R equals to R=(Papp(peptide)/Papp(control)).

[3] = Critical micelle concentration (CMC) by Dynamic Light Scattering; type: physicochemical
Description: The CMC of the amphiphilic peptides was determined by Dynamic Light Scattering (DLS) experiments (PDDLS/Batch setup, Precision Detectors, Franklin, Mass.). Solutions of different peptide concentrations were prepared in PBS and were filtered through 0.4 urn pore size filters prior to measuring. Scattered light was detected at 90° and the number of photons reaching the avalanche photodiode was recorded. The solvent viscosity and the refractive index of the buffer were taken as 0.894 cP and 1.33, respectively, at […]. Data were acquired in triplicates and processed by the Precision Deconvolve program, […]

[4] = Microelectrophoretic mobility (ζ-potential) measurements; type: physicochemical; conditions: PBS pH 7.4, 20 mg/mL peptide
Description: To determine the ζ-potential of the peptide nanovesicle formulations we used a Nano ZetaSizer (Malvern Instrument, UK) equipped with an avalanche photodiode as detector and a 4 mW He—Ne laser operated at 633 nm. Data were acquired by laser Doppler velocimetry and phase analysis light scattering (PALS). The self-assembling peptides were dispersed in PBS at a concentration of 20 mg/mL, which is above their CMC, and equilibrated for 30 min at 25° C. prior to detection. Microelectrophoretic data were obtained using the Henry-Smoluchowski equation.

[5] = AFM imaging of peptide nanovesicles on mica; type: physicochemical; conditions: for Vesicle diameter, AFM analysis: individual nanovesicles; for Vesicle diameter, AFM analysis / Beads diameter, AFM analysis (necklace-like formations): dry state on mica; for number of nanovesicles per necklace: AFM image analysis; for Clusters diameter, AFM analysis: nanovesicle clusters, dry state
Description: For the AFM experiments, 3 uL were removed from the peptide vesicle dispersions (20 mg/mL of peptides in PBS that has been filtered through 0.2 um filters) and deposited on a freshly cleaved mica surface (G250-2 mica sheets 2.5×2.5×0.015 cm; Agar Scientific Ltd, Essex, UK). The bare surface of mica is smooth (rms is about 0.4 nm). Before imaging, each sample was left on mica for 1 min, rinsed with 200 uL of water (Millipore), and dried in a nitrogen gas stream. Images were obtained immediately in air using a Veeco MultiMode NanoScope 3D Controller Scanning Probe Microscope (Digital Instruments, Santa Barbara, Calif.) operated in tapping mode. AFM imaging (512×512 pixels) was performed using soft silicon probes (FESP; nominal length lnom=225 um, width wnom=28 um, tip radius Rnom=8 nm, resonant frequency νnom=75 kHz, spring constant knom=2.8 N m^−1; Veeco Instruments SAS, Dourdan, France). Typical scanning parameters were tapping frequency 73 kHz, integral and proportional gains 0.2 and 0.4, respectively, set point 0.7-1.0 V, and scanning speed 1.0-1.5 Hz. The Nanoscope image processing software was used to obtain height patterns, cross sections, and MIS of the peptide nanovesicles. Images were collected from two different samples at random spot surface sampling (at least five areas).

[6] = Hydrophobic drug uptake and release (Nile red); type: physicochemical; conditions: for Nile red emission maxima: Nile red in peptide nanovesicles; for release kinetics of Nile red through peptide nanovesicles (in words): PBS pH 7.4, 20° C.; for retention of Nile red molecules (in words): compared to KA6-CONH2 and DA6-COOH vesicles
Description: The hydrophobic fluorescent probe Nile red was used as a probe molecule to study the peptide nanovesicle bilayer. […] The “thin film” method was used for the preparation of the dispersions. Briefly, 0.2 mg of the amphiphilic peptide was dissolved in ethanol and subsequently the organic solvent was removed under vacuum in a rotary evaporator. Then the produced thin film was rehydrated with 1 mL of PBS, pH 7.4 containing 3.14 uM Nile red. Prior to analysis the dispersions were bath sonicated for 30 minutes. All spectra were recorded at room temperature with excitation and emission slit widths set at 5 nm (RF-5301 PC Shimatzu spectrophotometer). The excitation wavelength was at 546 nm and the emission spectra were recorded from 550 to 700 nm.

P-glycoprotein = P-glycoprotein (Homo sapiens, UniProt P08183); assay: Transepithelial transport of Rhodamine-123 (basolateral to apical); conditions: control additions: 100 uM Verapamil or 1% SDS
Chain of P-glycoprotein (P08183 whole entry): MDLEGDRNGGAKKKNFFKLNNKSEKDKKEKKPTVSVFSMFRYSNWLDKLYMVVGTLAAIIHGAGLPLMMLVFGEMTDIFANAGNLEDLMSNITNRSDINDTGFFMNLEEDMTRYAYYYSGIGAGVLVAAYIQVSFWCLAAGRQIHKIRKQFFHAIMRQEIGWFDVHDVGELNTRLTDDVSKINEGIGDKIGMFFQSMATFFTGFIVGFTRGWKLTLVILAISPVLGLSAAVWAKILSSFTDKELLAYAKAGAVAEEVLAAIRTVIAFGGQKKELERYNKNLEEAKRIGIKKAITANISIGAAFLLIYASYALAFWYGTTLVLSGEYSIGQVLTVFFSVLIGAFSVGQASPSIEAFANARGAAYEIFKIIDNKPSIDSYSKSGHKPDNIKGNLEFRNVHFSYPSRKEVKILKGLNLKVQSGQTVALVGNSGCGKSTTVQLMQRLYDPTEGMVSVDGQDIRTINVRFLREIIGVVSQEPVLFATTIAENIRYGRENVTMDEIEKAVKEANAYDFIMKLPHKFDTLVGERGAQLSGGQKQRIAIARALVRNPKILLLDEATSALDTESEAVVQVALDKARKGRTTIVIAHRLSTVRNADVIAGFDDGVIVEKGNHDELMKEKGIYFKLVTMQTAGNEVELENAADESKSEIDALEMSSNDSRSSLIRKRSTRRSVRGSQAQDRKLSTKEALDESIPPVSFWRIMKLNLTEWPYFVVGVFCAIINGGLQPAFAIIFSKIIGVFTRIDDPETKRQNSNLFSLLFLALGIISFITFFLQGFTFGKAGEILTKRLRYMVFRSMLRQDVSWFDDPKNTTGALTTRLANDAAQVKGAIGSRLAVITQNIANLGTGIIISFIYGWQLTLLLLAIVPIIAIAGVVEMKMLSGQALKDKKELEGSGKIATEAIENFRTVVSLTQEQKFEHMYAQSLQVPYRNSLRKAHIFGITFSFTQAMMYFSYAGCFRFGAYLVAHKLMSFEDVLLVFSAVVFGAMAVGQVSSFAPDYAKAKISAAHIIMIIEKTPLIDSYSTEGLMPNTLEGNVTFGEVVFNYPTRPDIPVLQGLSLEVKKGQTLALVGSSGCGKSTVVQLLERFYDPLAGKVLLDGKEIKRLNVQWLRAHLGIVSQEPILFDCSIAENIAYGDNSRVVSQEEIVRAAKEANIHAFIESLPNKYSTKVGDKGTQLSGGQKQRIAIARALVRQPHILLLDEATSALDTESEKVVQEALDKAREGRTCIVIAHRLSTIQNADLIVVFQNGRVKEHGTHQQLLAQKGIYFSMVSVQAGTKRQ
Description: C18 150 mm×46 mm, 3.5 um analytical column, flow rate 0.85 ml/min, detector was set at 500 nm) [15]. The mobile phase, which consisted of acetonitrile, 20 mM sodium acetate buffer pH 4.0, and water containing 1.5 mM. […] Before the end of the experiment, the transepithelial resistance was measured to ensure that the cell monolayer integrity had not been affected by the experimental conditions.

Description for Caco-2 cells: Caco-2 cells (passage 40) were grown at 37° C. in tissue culture flasks with Dubelco's Modified Essential Medium (DMEM) supplemented with 10% v/v FBS (Fetal Bovine Serum) 1% nonessential amino acids and 100 ug/mL penicillin and streptomycin in humidified atmosphere containing 5% v/v CO2. The medium was changed every 2-3 days until cells reach 80% confluence and then were subcultured by trypsinization.
The effect of self-assembling peptides on cell viability and cell proliferation was investigated using the MTT colorimetric assay (Sigma). Caco-2 cells were cultured into the wells of 96-well plates using growth medium until a density of 4×10^3 cells/cm^2 was reached. Then we replaced the growth medium with fresh growth medium containing 0.2 or 1.0 mg/mL self-assembling peptides and the cells were incubated for 3, 24 and 48 h at 37° C. Then 10 uL of MTT reagent was added in each of the wells and the plates were incubated for 3 hat 37° C. Then 100 uL of the detergent solution was added and the plates were stored in the dark for 3 h to dissolve the formazan product. The optical density was measured at 600 nm in a Teknika® ELISA Plate spectrophotometer.

Row | Compound | CF retention / release (in words) [1] | Vesicle diameter, DLS analysis [2] | Papp of FITC-dextran 4.4 kDa (Caco-2 cell monolayers; 0.2 mg/ml peptide) | Enhancement ratio (FITC-dextran) (Caco-2 cell monolayers; 0.2 mg/ml peptide) | Papp of FITC-dextran 4.4 kDa (Caco-2 cell monolayers; 1.0 mg/ml peptide) | Enhancement ratio (FITC-dextran) (Caco-2 cell monolayers; 1.0 mg/ml peptide) | enhancement of FITC-dextran transport compared with the control (Caco-2 cell monolayers) [fold] | Caco-2 cell viability (Caco-2 cells) | CMC in PBS [3] [mg/mL] | ζ-potential [4] [mV] | Vesicle diameter, AFM analysis [5] [nm] | Nile red emission maxima ([6]; PBS pH 7.4) [nm] | release kinetics of Nile red through peptide nanovesicles (in words) [6] | retention of Nile red molecules (in words) [6] | number of nanovesicles per necklace [5] | Beads diameter, AFM analysis (necklace-like formations) [5] [nm] | Clusters diameter, AFM analysis [5] [nm] | further results
1 | acetyl-AAAAAAK-CONH2 (Ac-AAAAAAK-NH2) [Ac-A6K-CONH2, amphiphilic surfactant-like self-assembling peptide forming nanovesicles] | significantly retained the negatively charged CF | 122 (30-173) nm | 1.20 ± 0.36 10^-5 cm/s | 4.4 | 1.51 ± 0.37 10^-5 cm/s | 5.7 | 5.7 | exceeding 100% | 0.16 | 8.5±0.3 | 126 ± 23 | 631 | release was slower | retain higher numbers of Nile red molecules | – | – | – | CF release through peptide nanovesicles ([1]; after 7 h, PBS pH 7.4, 20° C.): approximately 50%; Vesicle diameter, DLS analysis ([2]; listed as ac-A6K-CONH2): 122 nm; Vesicle diameter, AFM analysis ([5]; listed as ac-A6K-CONH2): ~126 nm; Nile red fluorescence yield compared to other peptide nanovesicle systems ([6]; PBS pH 7.4): significantly higher
2 | CCCCCCCCCCCCOS(=O)(=O)[O-].[Na+] [SDS 1%] | – | – | – | – | – | – | – | – | – | – | – | – | – | – | – | – | – | Enhancement ratio (Rhodamine-123) (P-glycoprotein): 3.0; Papp of Rhodamine-123 (P-glycoprotein; basolateral to apical): 3.28 ± 0.02 10^-5 cm/s
3 | KAAAAAA-NH2 [KA6-CONH2] | – | 164 (65-350) nm | – | 4.0 | – | 5.1 | 5.1 | – | 0.07 | 12.4±0.9 | 169 ± 29 | 623 | – | – | – | – | – | CF retention / release (in words) ([1]; listed as KA6-CONH): did not retain CF; average diameter of second DLS peak (probably aggregates of individual vesicles) [2]: 906 nm
4 | acetyl-AAAAAAD-COOH (Ac-AAAAAAD-OH) [Ac-A6D-COOH, amphiphilic surfactant-like self-assembling peptide forming nanovesicles] | only a small CF retention efficiency | 97 (30-320) nm | 1.82 ± 0.24 10^-5 cm/s | 6.7 | 2.13 ± 0.16 10^-5 cm/s | 7.9 | 7.9 | exceeding 100% | 0.05 | −15.4±1.1 | 28 ± 9 | 626 | release was slower | to a lesser extent | 23±3 and 23 | 200 ± 11 | 101 ± 11 | initially loaded CF retained by vesicles ([1]; after 7 h, PBS pH 7.4, 20° C.): 13%; Vesicle diameter, DLS analysis ([2]; listed as ac-A6D-COOH): 97 nm; Beads diameter, AFM analysis (necklace-like formations) ([5]; listed as ac-A6D-COOH): 200±11 nm; Vesicle diameter, AFM analysis ([5]; listed as ac-A6D-COOH): 28±9 nm and ~43 nm; Clusters diameter, AFM analysis ([5]; listed as ac-A6D-COOH): 101±11 nm
5 | DAAAAAA-OH [DA6-COOH] | Fast CF release; also recorded: did not retain CF | 137 (64-725) nm | – | 5.0 | – | 6.6 | 6.6 | – | 0.12 | −14.0±1.1 | 43 ± 11 | 647 | – | – | 11±2 and 11 | 159±26 | 135±24 | Vesicle diameter, AFM analysis ([5]; listed as DA6-COON): 43±11 nm
